Biological target: hTEM8-AP (human) (UniProt Q9H6X2)
Test: Biocore (SPR) affinity measurement of anti-TEM8 Fab

Sequence of hTEM8-AP (human) (Q9H6X2 33-321): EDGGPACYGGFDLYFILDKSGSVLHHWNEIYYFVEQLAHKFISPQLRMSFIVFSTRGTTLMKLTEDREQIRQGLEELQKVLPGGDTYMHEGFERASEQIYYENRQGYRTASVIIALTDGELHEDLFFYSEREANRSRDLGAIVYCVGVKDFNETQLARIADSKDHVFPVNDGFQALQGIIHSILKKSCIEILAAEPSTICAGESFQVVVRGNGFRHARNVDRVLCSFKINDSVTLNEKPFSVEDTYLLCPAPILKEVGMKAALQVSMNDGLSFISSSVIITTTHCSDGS

Molecule | Kd [nM] | koff [s⁻¹] | kon [M⁻¹ s⁻¹]
M830 anti-TEM8 fragment antigen-binding (Fab) | 1.57 | 0.000953 | 607000
M825 anti-TEM8 fragment antigen-binding (Fab) (Fab, V domains shown) VH: QVQLVQSGAEVKKPGTSVKVSCKVPGYTFSSYAISWVRQAPGQGLEWMGGIIPIFGTTNYAQKFQGRVTITGEESTSTVYMELSSLRSEDTAVYYCARDTDYMFDYWGQGTLVTVSS VL: SSELTQDPVVSVALGETVSITCQGDNLRDFYASWYQQKPGQAPLLVMYGKNRRPSGIPDRFSGSTSGNTLSLTITGAQAEDEADYYCSSRDNSKHVVFGGGTKVTVL | 0.0591 | 0.00018 | 3.05e+06

— US20170112928A1
